Results as given in paper PMC4367809 (2015).

Tests used:
actin (ATP-actin:GS1) = actin (ATP-actin:GS1) (Oryctolagus cuniculus, UniProt P68135); assay: ITC
[1] = target: actin filament pointed end (Oryctolagus cuniculus, UniProt P68135); assay: pointed end elongation assay

Row | Kd (actin (ATP-actin:GS1)) [µM] | Kd [1] [µM] | Binder
1 | 10.5 | – | Tropomodulin-1 ABS2 160-349 (protein, actin in complex with gelsolin segment 1, ATP) GLNSVIKPTQYKPVPDEEPNSTDVEETLERIKNNDPKLEEVNLNNIRNIPIPTLKAYAEALKENSYVKKFSIVGTRSNDPVAYALAEMLKENKVLKTLNVESNFISGAGILRLVEALPYNTSLVEMKIDNQSQPLGNKVEMEIVSMLEKNATLLKFGYHFTQQGPRLRASNAMMNNNDLVRKRRLADLTG
2 | 7.5 | – | Tropomodulin-1 ABS1 50-101 (protein, actin in complex with gelsolin segment 1, ATP) QKDQTTKAPTGPFKREELLDHLEKQAKEFKDREDLVPYTGEKRGKVWVPKQK
3 | – | 0.028 | Tropomodulin-1 (protein, 1 uM tropomyosin, filament seeds capped at barbed end by capping protein) MSYRRELEKYRDLDEDEILGALTEEELRTLENELDELDPDNALLPAGLRQKDQTTKAPTGPFKREELLDHLEKQAKEFKDREDLVPYTGEKRGKVWVPKQKPLDPVLESVTLEPELEEALANASDAELCDIAAILGMHTLMSNQQYYQALSSSSIMNKEGLNSVIKPTQYKPVPDEEPNSTDVEETLERIKNNDPKLEEVNLNNIRNIPIPTLKAYAEALKENSYVKKFSIVGTRSNDPVAYALAEMLKENKVLKTLNVESNFISGAGILRLVEALPYNTSLVEMKIDNQSQPLGNKVEMEIVSMLEKNATLLKFGYHFTQQGPRLRASNAMMNNNDLVRKRRLADLTGPIIPKCRSGV
4 | – | 0.108 | Tropomodulin-1 (protein, filament seeds capped at barbed end by capping protein) MSYRRELEKYRDLDEDEILGALTEEELRTLENELDELDPDNALLPAGLRQKDQTTKAPTGPFKREELLDHLEKQAKEFKDREDLVPYTGEKRGKVWVPKQKPLDPVLESVTLEPELEEALANASDAELCDIAAILGMHTLMSNQQYYQALSSSSIMNKEGLNSVIKPTQYKPVPDEEPNSTDVEETLERIKNNDPKLEEVNLNNIRNIPIPTLKAYAEALKENSYVKKFSIVGTRSNDPVAYALAEMLKENKVLKTLNVESNFISGAGILRLVEALPYNTSLVEMKIDNQSQPLGNKVEMEIVSMLEKNATLLKFGYHFTQQGPRLRASNAMMNNNDLVRKRRLADLTGPIIPKCRSGV
